Series [1] addresses T1, SpoVG-6-His (Listeria monocytogenes 10403S) (UniProt Q8YAD5).
T1 sequence: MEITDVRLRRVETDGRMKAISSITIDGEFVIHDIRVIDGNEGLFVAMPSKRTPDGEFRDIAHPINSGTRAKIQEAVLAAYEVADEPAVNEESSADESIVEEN
The series is described as follows: EMSA. Conditions: 2x buffer: 40 mM Tris-HCl pH 8.0, 2 mM MgCl2, 20% glycerol, 300 mM NaCl, 5 mM DTT, plus 5 ug yeast tRNA, 1 ug BSA, 100 ng poly(dI-dC) …. (In general: In EMSA bound probe runs differently from free probe, usually more slowly.)

The target in series [2] is T1, SpoVG-6-His (Listeria monocytogenes 10403S). The series is described as follows: competition. Particulars: EMSA, 2x buffer: 40 mM Tris-HCl pH 8.0, 2 mM MgCl2, 20% glycerol, 300 mM NaCl, 5 mM DTT; plus 5 ug yeast tRNA, 1 ug BSA, 100 ng poly(dI-dC) ….
Series [3] concerns the target T2, SpoVG-6-His (Listeria monocytogenes 10403S, UniProt Q8YAD5 1-102).
T2 sequence: T1 sequence
As to the kind of experiment: EMSA; no significant binding to dsDNA; EMSA, 2x buffer: 40 mM Tris-HCl pH 8.0, 2 mM MgCl2, 20% glycerol, 300 mM NaCl, 5 mM DTT; plus 5 ug yeast tRNA, 1 ug BSA, 100 ng poly(dI-dC); 25-30 ul, room temperature 30 min, 5% native PAGE. Particulars: protein: recombinant; tags: C-terminal 6xHis; label: 32P; blunt.

Series [4] concerns the target T2, SpoVG-6-His. The series is described as follows: EMSA; EMSA, 2x buffer: 40 mM Tris-HCl pH 8.0, 2 mM MgCl2, 20% glycerol, 300 mM NaCl, 5 mM DTT; plus 5 ug yeast tRNA, 1 ug BSA, 100 ng poly(dI-dC); 25-30 ul, room temperature 30 min, 5% native PAGE. Conditions: protein: recombinant; tags: C-terminal 6xHis; label: 32P.

A word on the Kd: it is a measure of binding affinity in units of concentration.

Consider Rli109, for which the Kd in series [1] is 129 nM.

As for “GGGAAAAGAAACCCUAAUGUAUUCGAUAUAGUUCCUGAUAUUUUUGAACCGAACAAUUUUUUAUACCUAGGGAGCUUGGAGUUCCGGCGCGGCGCACAUGCCUUCACACGAGGAAGUGCAAACCGUUAGACAGAGCACCCACCUGCUUUAAUUGAGAGCGGGUUCAAAGGAAGGGAAUCCUAAACGGUACGAUUGGGGUUUCUUUUUUG [6S RNA]”, the binding result in series [1] was “no binding”.

On to “GGUAUCCCAUAGAGAUUGUCAGGGGAAAUAAGCUAAUUGAAAAUAAAUUACUUCCCCCAUAGAAAUAUUCUUAAUUGCUUAUUUCAAAUAAACACUCCUUUAAGAUAGUUGUAGCACAGAAUUUCCCAGAUUCUGUGCUAUAAUUA [Rli31 mutant A]”, for which the binding entry in series [1] is recorded as “binds”.

Turning to “GGUAUCCCAUAGAGAUUGUCAUUUGAAAUAAGCUAAUUGAAAAUAAAUUACUUUUUCCAUAGAAAUAUUCUUAAUUGCUUAUUUCAAAUAAACACUCCUUUAAGAUAGUUGUAGCACAGAAUUUCCCAGAUUCUGUGCUAUAAUUA [Rli31 mutant E]”, in series [1], the binding signal result is given as “binds more weakly”.

Turning to Rli32, the Kd in series [1] came to 273 nM.

In the case of “GGGUGGAGAGCUUUCAUUUUUCCCAAGAGAAAGCAAAUAAUGUUAGAGCAAUAAUUCUAGUAUCCGAAUUAGUCUUAUCCCUUGGCUCGCUUUAAUAUUAUUUCUCCCUAAUACUCCCUUAACCGCAUCCCCCUGGUGCGGUUAUUUUUUUG [Rli32]”, in series [1], the Kd is 273 nM.

As for “GGUUGUCGUGCUAGACGGGGAGGUAGCGGCGCCCUGUAACCCGCAAUCCGCUCUAGCGGGGUUGAAUUCCUCAUUUGAGGCAUCGUAAUUGUUUGGUCUGCCCUUGACAAGUGGUGUUGAAGGUUGGGUCUUGCGCAAUGGGAACCUGUGAACCAUGUCAGGUCCGGAAGGAAGCAGCAUUAAGCAGUGCUUCUCAUGUGCCGCGAGGUCGCCUGGCCCGAGCUAACUAUCAGGGUAACGCAGAUGAUUGCAUGUCGAUGUGAGGUGCGCGACACUAA [SRP RNA]”, in series [1], the binding result was “no binding”.

In the case of “GGUAUCCCAUAGAGAUUGUCAUUUGAAAUAAGCUAAUUGAAAAUAAAUUACUUCCCCCAUAGAAAUAUUCUUAAUUGCUUAUUUCAAAUAAACACUCCUUUAAGAUAGUUGUAGCACAGAAUUUCCCAGAUUCUGUGCUAUAAUUA [Rli31]”, in series [1], the Kd amounted to 273 nM.

For Rli31, the dissociation constant (Kd) in series [1] was 273 nM.

For the molecule “GGUGAGAUGACAUGUUUCUUUUGAAUGCGCGAACUAGUAUAGCUAAAUUUUUGUAUAUUGUCCGUGCAAUUUUUUCCGUUAUUGCAGUUACAUUGGCGAAGUCUGCCCAAAAAACUGUAUAACUAGAAAAAAUGAGAGAAGCAUGGAGUCACGCAAUCGAUUUGUAUAGUGCUAAAUUAGUAUUAUACUUAUAAUUGGCGUCGGGCGCUUGUCUGACGCUUUUUUGUUGUCUGAAAAAA [RliI]”, in series [1], the binding entry is reported as “binds more weakly”.

As to “GGGCAGUGGAAUUAAAGGCAUCUAAGCAAAUCAUGAUGAACGAGAGAACCGUUUGAAGAUCAUCCGAAUGACGUAUAUGUUCUACCUUGAUCUGUUCAGCCGCAAUGCUUUUGCGAGUGACA [Rli109]”, the Kd in series [1] worked out at 129 nM. For the same molecule, the binding result in series [2] is recorded as “binds”.

B1: cap41 dsDNA (dsDNA)
DNA 1: GAGTATAATTATTTTTAATTTACATATAAATAAAAAGGCGAAAATAATGCGGTTTAAAAGTAATTAAT
DNA 2: ATTAATTACTTTTAAACCGCATTATTTTCGCCTTTTTATTTATATGTAAATTAAAAATAATTATACTC
B1: the binding result with SpoVG-6-His [3] is “no binding”.

GTCGCGCAACAAAGTAATAATGCAGATGGACAGACTAATGAAAGACCAG (ssDNA) [pgdA ORF]: in the series with SpoVG-6-His [4], the binding result was “binds”.

The values above are taken from paper PMC4959528, “SpoVG Is a Conserved RNA-Binding Protein That Regulates Listeria monocytogenes Lysozyme Resistance, Virulence, and Swarming Motility”.
